This passage reports activity results from patent publication US5864028, “Degradation resistant mRNA derivatives linked to TNF-α ribozymes” (Gene Shears Pty. Limited).

For data set [1], the target named is T1, GAPDH (commercial, rabbit muscle) (Oryctolagus cuniculus, UniProt P46406 P46406:1-333). Kind of data set: cleavage enhancement similar to IL-2-Rz2. To be noted: tags: commercial; chain copies: 4 (stated homotetramer); hammerhead ribozyme with 5'-3' end duplex.
Data set [2] has as its target T1, GAPDH (commercial, rabbit muscle). Kind of data set: ribozyme cleavage rate enhancement; none with LD. To be noted: tags: commercial; chain copies: 4 (stated homotetramer); hammerhead ribozyme with 5'-3' end duplex. As for the experimental part:
Autoradiogram of denaturing gels of multiple turnover reactions in the absence FIG. 32(A) or in the presence of GAPDH FIG. 32(B) as well as in the presence of LD as unspecific protein FIG. 32(C). 5 nM of the ribozyme and 50 nM of […] 15-mer substrate were incubated in a reaction mixture containing 50 mM Tris-HCl pH 7.5 and 5 mM MgCl_2 at 37° C. in the absence or presence of proteins (150 ng/μl) and then processed as described below. FIG. 32(D) Quantification of the data shown in A, B and C by Phospho-Imager. Appropriate time (min) is indicated on the top of each lane. FIG. 32(E) Control experiments. A Phospho-Imager printout is shown following separation of the products by 15% PAGE gel. No cleavage activity was seen upon addition of GAPDH in absence of Mg^++ (lane 4). The cleavage rate of the ribozyme (lane 2) is enhanced by the addition of GAPDH (Lane 3). This cleavage enhancement is shut down by phenol treatment of the GAPDH preparation prior to addition (lane 5). Arrows indicated the cleavage products.
Standard cleavage reactions were carried out at 37° C. in buffer containing 50 mM Tris-HCl, pH 7.5 and 10 mM MgCl_2. Multiple turnover cleavage reactions in the presence or absence of GAPDH were performed with 5 mM […], unless otherwise indicated. Ribozyme and substrate were heated separately at 90° C. for 1 min and cooled at 4° C. […]

In data set [3] the target is GAPDH (37 kDa ribozyme-binding protein purified from PBMN cells) (Homo sapiens, UniProt P04406 P04406:2-335). Put plainly: ribozyme cleavage rate enhancement; 100 ng/ul GAPDH, 2 mM MgCl2, 37 C. The settings on record: tags: none; Mono Q purified from PBMN cytoplasmic extract; chain copies: 4 (stated homotetramer); label: 32P internal; hammerhead ribozyme. As for the experimental part: FIG. 29(A) Ribozymes (2 nM) and the [γ^32P]-labelled 20-mer target RNA (50 nM) were incubated at 37° C. in the presence or absence of different concentrations of purified protein (Filled rectangle) or lactate dehydrogenase (open rectangle) as unspecific protein in a reaction buffer containing 50 mM Tris-HCl pH 7.5 and 1 mM MgCl_2. […] The radioactivity contained in each 5' end was quantified by Phospho-Imager. […] Appropriate time (min) is indicated on the top of each lane. The radioactivity containing in each 5' end-labelled product was quantified and expressed as percentage of radioactivity present in the substrate FIG. 29(D).
Standard cleavage reactions were carried out at 37° C. in buffer containing 50 mM Tris-HCl, pH 7.5 and 10 mM MgCl_2. Multiple turnover cleavage reactions in the presence or absence of GAPDH were performed with 5 mM […], unless otherwise indicated. Ribozyme and substrate were heated separately at 90° C. for 1 min and cooled at 4° C. After this step both RNAs were mixed in cleavage buffer containing 0.2 U RNasin and then divided into 3 samples. Following addition of GAPDH or lactate dehydrogenase (LD) as an unspecific protein to one of the samples, reactions were initiated by the addition of MgCl_2. At specified times, 10 μl aliquots were removed and the reaction was stopped by the addition of 20 mM EDTA and phenol.

T1 sequence (P46406 whole entry, one chain of several): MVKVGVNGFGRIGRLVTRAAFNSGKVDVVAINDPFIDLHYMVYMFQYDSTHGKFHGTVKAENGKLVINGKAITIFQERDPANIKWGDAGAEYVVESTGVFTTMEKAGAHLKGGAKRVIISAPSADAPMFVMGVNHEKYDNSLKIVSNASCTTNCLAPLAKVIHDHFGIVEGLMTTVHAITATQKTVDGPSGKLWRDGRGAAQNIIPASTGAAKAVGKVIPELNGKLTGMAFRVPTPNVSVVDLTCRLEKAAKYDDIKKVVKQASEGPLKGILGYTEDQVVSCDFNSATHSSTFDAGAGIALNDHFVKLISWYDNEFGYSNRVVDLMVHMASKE
Chain of GAPDH (37 kDa ribozyme-binding protein purified from PBMN cells) (P04406 2-335, one chain of several): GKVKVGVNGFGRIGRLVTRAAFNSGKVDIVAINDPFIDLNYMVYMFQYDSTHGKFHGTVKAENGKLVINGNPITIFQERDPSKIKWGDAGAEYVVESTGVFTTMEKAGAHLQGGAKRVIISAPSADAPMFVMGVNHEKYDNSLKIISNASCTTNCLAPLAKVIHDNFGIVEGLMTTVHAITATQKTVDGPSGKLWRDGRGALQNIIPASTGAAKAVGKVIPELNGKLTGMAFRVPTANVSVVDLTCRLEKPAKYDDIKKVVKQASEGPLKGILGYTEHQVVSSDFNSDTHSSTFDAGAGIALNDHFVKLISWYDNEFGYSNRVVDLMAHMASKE

B1: IL-2-Rz3 (ssRNA)
RNA: GACUUAGUGCAAUGCAACUGAUGAGUCCGUGAGGACGAAACAGGAGUUGCGAAUU
With B1, the activity in data set [1] was about 15 fold.

B2: IL-2-Rz2 (ssRNA)
RNA: GGUGCAAUGCAACUGAUGAGUCCGUGAGGACGAAACAGGAGUUGCGAAUU
As for B2, in data set [2], the activity worked out at 15 fold.

B3: TNF-alpha-Rz (ssRNA)
RNA: GUAAGAUGAUCUCUGAUGAGUCCGUGAGGACGAAACUGCCUGGUACUGAAUU
As for B3, in data set [3], the activity turned out to be 3.8 fold.
